Results taken from paper PMC11933058 (Frontiers in Immunology, 2025).

B1: MG1131, human IgG1 format (antibody, V domains shown)
VH: EVQLVQSGAEVKKPGASVKVSCKASGYTFTSYYMHWVRQAPGQGLEWMGIINPSGGSTSYAQKFQGRVTMTRDTSTSTVYMELSSLRSEDTAVYYCASRSGSGWFGALDYWGQGTLVTVSS
VL: not shown
notes: VH of MG1131; constant domains of unmodified human IgG1 heavy chain, from the plasmid pTrioz-hIgG1 (InvivoGen); VL of MG1131; constant domain of the light chain as encoded by pTrioz-hIgG1; IgG1; VH and VL by gene synthesis; also called 7VYT; source: HEK293, transiently transfected, supernatant (concentrated)
B2: M6903, human IgG1 format (antibody, V domains shown)
VH: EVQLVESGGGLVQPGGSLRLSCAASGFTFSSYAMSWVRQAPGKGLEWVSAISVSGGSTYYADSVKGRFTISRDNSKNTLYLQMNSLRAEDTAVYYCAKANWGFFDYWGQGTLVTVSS
VL: QSALTQPRSVSGSPGQSVTISCTGTSSDVGGYNYVSWYQQHPGKAPKLMIYDVSKRPSGVPDRFSGSKSGNTASLTISGLQAEDEADYYCSSYADSVVFGGGTKVTVL
notes: VH of M6903; constant domains of unmodified human IgG1 heavy chain, from the plasmid pTrioz-hIgG1 (InvivoGen); VL of M6903; constant domain of the light chain as encoded by pTrioz-hIgG1; IgG1; VH and VL by gene synthesis; also called 6TXZ; source: HEK293, transiently transfected, supernatant (concentrated); also a large batch produced and purified by SinoBiological
B3: CC-95251, human IgG1 format (antibody, V domains shown)
VH: QVQLVQSGAEVKKPGASVKVSCKASGYTFRGYGISWVRQAPGQGLEWMGWISAYGGETNYAQKLQGRVTMTTDTSTSTAYMELRSLRSDDTAVYYCAREAGSSWYDFDLWGRGTLVTVSS
VL: DIQMTQSPSSVSASVGDRVTITCRASQGISSWLAWYQQKPGKAPKLLIYAASNLQSGVPSRFSGSGSGTDFTLTISSLQPEDFATYYCQQGASFPITFGGGTKVEIK
notes: constant domains of unmodified human IgG1 heavy chain, from the plasmid pTrioz-hIgG1 (InvivoGen); constant domain of the light chain as encoded by pTrioz-hIgG1; VH and VL by gene synthesis; also called 7ST5; source: HEK293, transiently transfected, supernatant
B4: Tiragolumab, human IgG1 format (antibody, V domains shown)
VH: EVQLQQSGPGLVKPSQTLSLTCAISGDSVSSNSAAWNWIRQSPSRGLEWLGKTYYRFKWYSDYAVSVKGRITINPDTSKNQFSLQLNSVTPEDTAVFYCTRESTTYDLLAGPFDYWGQGTLVTVSS
VL: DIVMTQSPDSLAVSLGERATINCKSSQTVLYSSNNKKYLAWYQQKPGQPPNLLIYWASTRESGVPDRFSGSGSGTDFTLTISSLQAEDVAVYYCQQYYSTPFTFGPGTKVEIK
notes: VH of Tiragolumab; constant domains of unmodified human IgG1 heavy chain, from the plasmid pTrioz-hIgG1 (InvivoGen); VL of Tiragolumab; constant domain of the light chain as encoded by pTrioz-hIgG1; IgG1; VH and VL by gene synthesis; also called 8JEO; source: HEK293, transiently transfected, supernatant (concentrated)
B5: Tim3.18, human IgG1 format (antibody, V domains shown)
VH: QLQLQESGPGLVKPSETLSLTCTVSGGSISSRSYYWGWIRQPPGKGLEWIGSIYYSGFTYYQPSLKSRVTISVDTSKNQFSLKLSSVTAADTAVYYCATGGPYGDYAHWFEPWGQGTLVTVSS
VL: not shown
notes: VH of Tim3.18; constant domains of unmodified human IgG1 heavy chain, from the plasmid pTrioz-hIgG1 (InvivoGen); VL of Tim3.18; constant domain of the light chain as encoded by pTrioz-hIgG1; IgG1; VH and VL by gene synthesis; also called 7KQL; source: HEK293, transiently transfected, supernatant (concentrated); also a large batch produced and purified by SinoBiological

Key:
[1] = biological target: T1, TIT-H52H5 Human TIGIT Protein, His Tag, active dimer (ACROBiosystems) (Homo sapiens, UniProt Q495A1); assay: BLI; Octet RED96, antibody loaded from supernatant on anti-human Fc (AHC) biosensors, recombinant TIM3 or TIGIT in solution; PBS, 30°C, 1000 rpm; association 300 sec, dissociation 300 sec; global 1:1 fit; settings: one partner purified
T1 construct: TIGIT, human, recombinant extracellular domain; the methods describe the His-tagged protein; For BLI only 'recombinant TIGIT' is said; also called VSIG9; T-cell immunoreceptor with Ig and ITIM domains; source: bought: ACROBiosystems
T1 sequence (Q495A1 22-141): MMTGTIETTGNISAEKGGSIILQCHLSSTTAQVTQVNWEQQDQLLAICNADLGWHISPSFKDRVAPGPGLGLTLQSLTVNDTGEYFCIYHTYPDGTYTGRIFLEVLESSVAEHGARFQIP

[2] = biological target: T1, TIT-H52H5 Human TIGIT Protein, His Tag, …; assay: AlphaScreen or HTRF; dose-response of antibodies (human IgG1 in concentrated, dosed HEK293 supernatant) on recombinant TIM3 or TIGIT at 0.6 ng/µl; 1 h incubation, then donor and acceptor sensors 1 h; EC50 from a fit in GraphPad Prism; settings: one partner purified
[3] = biological target: T2, recombinant human TIM3 extracellular domain, 6-His C-ter-tagged (ACROBiosystems) (Homo sapiens, UniProt Q8TDQ0); assay: BLI; Octet RED96, antibody loaded from supernatant on anti-human Fc (AHC) biosensors, recombinant TIM3 or TIGIT in solution; PBS, 30°C, 1000 rpm; association 300 sec, dissociation 300 sec; global 1:1 fit; settings: one partner purified
T2 construct: TIM3 (HAVCR2), human, recombinant extracellular domain; the methods describe the His-tagged protein; For BLI only 'recombinant TIM3' is said; also called HAVCR-2; HAVCR2; source: bought: ACROBiosystems; not shown: His6, C-terminal, kept

[4] = biological target: T2, recombinant human TIM3 extracellular …; assay: AlphaScreen or HTRF; dose-response of antibodies (human IgG1 in concentrated, dosed HEK293 supernatant) on recombinant TIM3 or TIGIT at 0.6 ng/µl; 1 h incubation, then donor and acceptor sensors 1 h; EC50 from a fit in GraphPad Prism; settings: one partner purified
[5] = biological target: T3, SIRPα with C-terminal Flag tag, overexpressed in HEK293 cells (UniProt P78324); assay: flow cytometry on cells; HEK293 transiently transfected with the Flag-tagged target, fixed and permeabilized, incubated with raw antibody supernatants 1 h at room temperature; APC anti-human IgG and PE anti-Flag; % APC+PE+ cells; settings: partners not purified
T3 construct: SIRPα, transmembrane target, synthetic gene; source: HEK293, transiently transfected (pcDNA3.1), cells fixed and permeabilized; not shown: Flag, C-terminal, kept

Binder | Kd [1] [nM] | koff [1] [s⁻¹] | kon [1] [M⁻¹ s⁻¹] | EC50 [2] [nM] | Kd [3] [nM] | koff [3] [s⁻¹] | kon [3] [M⁻¹ s⁻¹] | EC50 [4] [nM] | binding result [5]
B1 | 0.189 | 7.43e-05 | 393000 | 0.489 |  |  |  |  | 
B2 |  |  |  |  | 0.2 | 3.06e-05 | 153000 | 0.193 | 
B3 |  |  |  |  |  |  |  |  | binds
B4 | 0.681 | 0.000279 | 410000 | 3.15 |  |  |  |  | 
B5 |  |  |  |  | 1.01 | 0.000219 | 216000 | 0.15 | 
